The target in assay [1] is T1, Claudin 6 (human) (human, UniProt P56747 1-220).
T1 construct: Expressed on transfected HEK-293T cells or naturally on PA-1 cells for flow cytometry; For the Octet KD values it was the intact protein embedded in virus-like particles (lipoparticles); also called hsCLDN6; CLDN6
T1 chain: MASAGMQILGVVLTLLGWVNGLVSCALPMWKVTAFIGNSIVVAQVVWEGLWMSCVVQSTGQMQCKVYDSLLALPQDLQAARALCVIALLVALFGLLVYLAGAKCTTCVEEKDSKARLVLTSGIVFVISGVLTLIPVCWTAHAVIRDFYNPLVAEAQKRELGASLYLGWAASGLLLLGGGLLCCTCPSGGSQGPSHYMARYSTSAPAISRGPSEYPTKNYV
The assay is described as follows: binding assay of the 13th table, method not described.

For assay [2], the target named is T1, Claudin 6 (human). The assay can be described thus: flow cytometry, 66 nM MAb on HEK-293T cells expressing claudin6. The procedure:
Expression and Binding of claudin6 MAbs. Claudin 6 MAbs produced using their natural light chain, or produced using a different light chain. Yield represents the preparation of the purified MAb and ug of protein resulting from the preparation. Binding represents 66 nM of the indicated MAb binding to HEK-293T cells expressing the target claudin6. The Controls represents the same MAbs staining HEK-293T cells not transfectedwith claudin6. Staining was detected by flow cytometry (geometric mean fluorescence). N/A, not available.
(A flow cytometer gives signals particle by particle.)

Assay [3] deals with T1, Claudin 6 (human). The assay can be described thus: flow cytometry, HEK-293T cells transfected with plasmids for the indicated proteins; pUC = empty vector control.
Assay [4] has as its target T2, Claudin 4 (UniProt O14493 1-209).
T2 construct: also called CLDN4
T2 sequence (looked up): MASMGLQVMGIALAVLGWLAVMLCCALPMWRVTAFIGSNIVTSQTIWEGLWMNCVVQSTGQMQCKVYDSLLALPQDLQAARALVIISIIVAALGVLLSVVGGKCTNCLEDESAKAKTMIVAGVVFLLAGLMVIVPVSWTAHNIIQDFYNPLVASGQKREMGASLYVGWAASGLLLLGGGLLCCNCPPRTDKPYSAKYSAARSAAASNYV
The assay can be described thus: flow cytometry, HEK-293T cells transiently transfected with the indicated claudin; pUC19 = empty vector control. The procedure:
(§1) FIG. 2 illustrates the results of a binding assay showing that Claudin 6 MAbs bind to human Claudin 6 preferentially over other Claudin proteins. Human embryonic kidney 293T (HEK-293T) cells were transiently transfected with DNA for the indicated Claudin protein or empty vector along with GFP (pUC) for 22 hours.

In assay [5] the target is T3, Claudin 3 (UniProt O15551 1-220).
T3 construct: also called CLDN3
T3 sequence (looked up): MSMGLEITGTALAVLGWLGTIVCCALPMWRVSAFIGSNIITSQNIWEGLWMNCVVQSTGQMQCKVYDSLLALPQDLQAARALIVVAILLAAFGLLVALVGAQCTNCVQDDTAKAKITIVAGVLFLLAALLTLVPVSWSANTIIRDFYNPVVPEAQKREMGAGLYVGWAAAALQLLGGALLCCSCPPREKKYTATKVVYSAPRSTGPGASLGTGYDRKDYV
The description is as above. As to the method:
as §1

The target in assay [6] is T4, Claudin 9 (UniProt O95484 1-217).
T4 construct: Octet KD values: intact claudin protein embedded in virus-like particles (lipoparticles); also called CLDN9
T4 sequence (looked up): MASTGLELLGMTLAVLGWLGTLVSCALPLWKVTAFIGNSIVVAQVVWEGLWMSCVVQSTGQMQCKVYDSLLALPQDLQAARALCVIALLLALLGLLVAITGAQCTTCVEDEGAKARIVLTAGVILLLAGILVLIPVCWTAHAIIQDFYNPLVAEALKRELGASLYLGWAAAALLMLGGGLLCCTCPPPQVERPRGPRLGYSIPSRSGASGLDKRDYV
The assay can be described thus: biosensor (Forte Octet), intact claudin in virus-like particles (lipoparticles). The procedure: Affinity of various antibodies against CLDN6 as compared to CLDN9, CLDN3, and CLDN4 was measured using a biosensor. Biosensor affinity measurement of the various antibodies against the proteins was determined using a Forte Octet, which was used for biosensor measurements, using intact claudin proteins embedded in virus-like particles (lipoparticles). The KD for different antibodies is shown below.

Broadly, the EC50 is the concentration needed to bring the measured effect to its halfway point. Read a high EC50 as lower potency in that assay. One may read the EC50 (read off the curve) as the midpoint of the concentration-response curve. A lower EC50 (read off the curve) goes with higher potency in that assay. As a reminder, the Kd is the constant that tells how readily two partners part at equilibrium. Read a low Kd as a tighter complex.

Positions count from the first letter of the chain named. Bounds are passed on as bounds.

B1: IM-271-1HBF (antibody, V domains shown)
VH: EVQLLESGGGLVQPGGSLRLSCAASGFTFSSYAMNWVRQAPGKGLEWVAGISSSGRYTGYADSVKGRFTISRDNSKNTLYLQMNSLRAEDTAVYYCAKSVGSGVSWSGYVATSIDAWGQGTLVTVSS
VL: SYELTQPPSVSVSPGQTARITCSAGSGLYGWYQQKPGQAPVLVIYGTNKRPSGIPERFSGSSSGTTVTLTISGVQAEDEADYYCGSADSSTNAGIFGGGTKLTVL
notes: also called CH-HAMF5-1HBF
B1 displayed a concentration giving a half-maximal response (EC50) in assay [1] of less than 4 nM.

B2: IM180 (antibody, V domains shown)
VH: B1 VH with T28D, S52G, S54T, R56S, Y57S, S102N, V104N, V110I
VL: SYELTQPPSVSVSPGQTARITCSGGSSGYGWYQQKPGQAPVLVIYSNDKRPSGIPERFSGSSSGTTVTLTISGVQAEDEADYYCGSTDNSYVGIFGGGTKLTVL
notes: Produced with its natural light chain
Turning to B2, the “Binding (geometric mean fluorescence)” value in assay [2] was 46900 geometric mean fluorescence.

B3: IM180 w/ F10h cLC (antibody, V domains shown)
VH: B1 VH with T28D, S52G, S54T, R56S, Y57S, S102N, V104N, V110I
VL: SYELTQPPSVSVSPGQTARITCSGGYNGHYGWYQQKPGQAPVLVIYSNNQRPSGIPERFSGSSSGTTVTLTISGVQAEDEADYYCGGYDSSAGIFGGGTKLTVL
notes: IM180 heavy chain paired with the common light chain F10h
Consider B3, for which the “Binding (geometric mean fluorescence)” value in assay [2] is 10100 geometric mean fluorescence.

B4: IM-271-1HAQ (antibody, V domains shown)
VH: B1 VH with N35S, S102N, V104N
VL: B1 VL with A24G, L28S
notes: also called CH-HAMF5-1HAQ
Consider B4, for which, in assay [1], the EC50 was less than 4 nM.

B5: IM-271-1HBG (antibody, V domains shown)
VH: B1 VH with V100M
VL: B1 VL
notes: also called CH-HAMF5-1HBG
B5: in assay [1], the concentration for a half-maximal effect (EC50) was less than 4 nM.

B6: IM-271-1HEP (antibody, V domains shown)
VH: B1 VH with I114L
VL: B1 VL
notes: T0003 prints the label CH-HAMF5-MEP; Tied by the suffix only; also called CH-HAMF5-1HEP; CH-HAMF5-MEP
In assay [1], B6 registered an EC50 of less than 4 nM.

B7: IM-271-1HFJ (antibody, V domains shown)
VH: B1 VH with V100M, A116V
VL: B1 VL
notes: also called CH-HAMF5-1HFJ
The molecule B7 displayed an EC50 in assay [1] of less than 4 nM.

B8: IM-271-1HGT (antibody, V domains shown)
VH: B1 VH with I114L, A116V
VL: B1 VL with A87N, S89A
notes: also called CH-HAMF5-1HGT
Consider B8, for which the EC50 in assay [1] was less than 4 nM.

B9: IM271 w/ F10h cLC (antibody, V domains shown)
VH: B1 VH with N35S, S102N, V104N, V110I
VL: B3 VL
notes: IM271 heavy chain paired with the common light chain F10h
Turning to B9, the “Binding (geometric mean fluorescence)” value in assay [2] is 160000 geometric mean fluorescence.

B10: IM-271-1HHP (antibody, V domains shown)
VH: B1 VH with I114L, A116V
VL: B1 VL with A24G, L28S, N48Y
notes: also called CH-HAMF5-1HHP
In assay [1], B10 displayed an EC50 of less than 4 nM.

B11: IM-271-1HFB (antibody, V domains shown)
VH: B1 VH with V100M
VL: B1 VL with A24G, L28S, N48Y
notes: also called CH-HAMF5-1HFB
In assay [1], B11 had an EC50 of less than 4 nM.

B12: IM271 (antibody, V domains shown)
VH: B1 VH with N35S, S102N, V104N, V110I
VL: B1 VL with A24G, L28S
B12 had an EC50 in assay [1] of less than 4 nM. Besides, the concentration giving a half-maximal response (EC50 (read off the curve)) in assay [3] was roughly 0.4 µg/mL. Further, the “Binding (geometric mean fluorescence)” value in assay [2] was 63000 geometric mean fluorescence.

B13: IM-271-1HHR (antibody, V domains shown)
VH: B1 VH with V100M, I114L, A116V
VL: B1 VL with A24G, L28S, N48Y
notes: also called CH-HAMF5-1HHR
B13: the EC50 in assay [1] was less than 4 nM.

B14: IM136 (antibody, V domains shown)
VH: AVTLDESGGGLQTPGGVLSLVCKASGFSFSSYDMGWVRQAPGKGLEWVASIYSSASSTYYAPAVKGRATITRDNGQSTVRLQLNNLRAEDTGTYYCAKAAGRTYRGWATYIADSIDAWGHGTEVIVSS
VL: ALTQPSSVSANPGESVEITCSGDSSWYGYGWYQQKSPGSAPVTLIYESGKRPSDIPSRFSGSTSGSTATLTITGVQADDEAVYYCGSADSNSIGIFGAGTTLTVL
notes: Detected with anti-human IgG Fc secondary
In the case of B14, the binding result in assay [4] and in assay [5] was “no binding (tested: log [mAb] about -7.2 M)” each time. For the same molecule, binding in assay [6] was characterised by a dissociation constant (Kd) of 386 nM.

B15: IM-35-N1F09-1HA (antibody, V domains shown)
VH: EVQLLESGGGLVQPGGSLRLSCAASGFTFSSYGMSWVRQAPGKGLEWVAGIGSSGIYTHYADSVKGRFTISRDNSKNTLYLQMNSLRAEDTAVYYCAKSPGDSDWCGWAGYGIYSCRVAGFIDAWGQGTLVTVSS
VL: B3 VL with S47G, N48T, Q50K
The molecule B15 came in with an EC50 in assay [1] of less than 4 nM.

B16: IM-35-N2H07-1HA (antibody, V domains shown)
VH: EVQLLESGGGLVQPGGSLRLSCAASGFTFSGYAMSWVRQAPGKGLEWVAGIYSSGSYTFYADSVKGRFTISRDNSKNTLYLQMNSLRAEDTAVYYCAKGTGYCDWSGWCYSGAANIDAWGQGTLVTVSS
VL: SYELTQPPSVSVSPGQTARITCSGGSGSYGYYGWYQQKPGQAPVLVIYGTNKRPSGIPERFSGSSSGTTVTLTISGVQAEDEADYYCGSEDSSSGAGIFGGGTKLTVL
Turning to B16, the EC50 in assay [1] was less than 4 nM.

B17: IM172 (antibody, V domains shown)
VH: AVTLDESGGGLQTPGGALSLVCKGSGFSISSYTMQWVRQAPGKGLEWVAGIYSGSRTYYGAAVQGRATISRDNGQSTVRLQLNNLRAEDTGTYYCAKSSYCTAWTGCDVYAGGSIDAWGHGTEVIVSS
VL: ALTQPSSVSATPGGTVEITCSGDSSDDGSYYYGWYQQKSPGSAPVTVIYSNDKRPSSIPSRFSGSASGSTATLTITGVQADDEAVYFCGSYDSSTGIFGAGTTLTVL
notes: as for B14
For B17, the affinity in assay [6], expressed as Kd, was 81 nM.

For the origin of these results see patent US20220127355A1 (INTEGRAL MOLECULAR, published 2022).
